Experimental data as given in the supplement of paper PMC10724198.
± gives the standard deviation of the averaged measurements.

Assays:
[1] = test system: Saccharomyces cerevisiae; assay: protein stability index of tFT-peptide fusion (C-terminal peptide) (PSI (0-1 scale)); higher = more stable (slower turnover); details: genetic background: wild type; temperature: 30 C
[2] = test system: Saccharomyces cerevisiae; assay: as above
Method: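 MPS profiling in S. cerevisiae of the tFT-X12 degron library: putative degron peptides plus stable controls, 12 aa, fused to the C-terminus of a sfGFP-mCherry timer. Cells are FACS-sorted into 8 mCherry/sfGFP bins and deep-sequenced. PSI runs from 0 (unstable) to 1 (stable). Backgrounds are wild type, das1Δ and doa10Δ at 30 °C, and wild type, das1Δ, cdc34-1 and cdc53-1 at 37 °C; 2-3 technical replicates each.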

[3] = genetic background: cdc34-1, temperature: 37 C
[4] = genetic background: cdc53-1, temperature: 37 C
[5] = genetic background: das1 deletion, temperature: 30 C
[6] = genetic background: das1 deletion, temperature: 37 C
[7] = genetic background: doa10 deletion, temperature: 30 C
[8] = genetic background: wild type, temperature: 30 C
[9] = genetic background: wild type, temperature: 37 C
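Also: PSI is a weighted mean of sequencing reads over stability bins, variants kept only with over 10 reads, mCherry proximal and sfGFP distal, peptide attached via GGGS linker.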

| Sequence | protein stability index [1] | protein stability index [2, 3] | protein stability index [2, 4] | protein stability index [2, 5] | protein stability index [2, 6] | protein stability index [2, 7] | protein stability index [2, 8] | protein stability index [2, 9] |
| --- | --- | --- | --- | --- | --- | --- | --- | --- |
| FFICCPLLVVCS | 0.109 ± 0.041 | 0.0277 ± 0.012 | 0.0453 ± 0.027 | 0.091 ± 0.022 | 0.0716 ± 0.018 | 0.064 ± 0.016 | 0.0665 ± 0.035 | 0.0677 ± 0.021 |
| YFFFFLHFNFAF | 0.2803 ± 0.002 | 0.145 ± 0.062 | 0.169 ± 0.036 | 0.246 ± 0.023 | 0.35 ± 0.0091 | 0.313 ± 0.034 | 0.225 ± 0.059 | 0.267 ± 0.021 |
| LVCLVFVRSSLV | 0.339 ± 0.022 | 0.268 ± 0.0043 | 0.571 ± 0.079 | 0.25 ± 0.024 | 0.529 ± 0.0096 | 0.205 ± 0.0029 | 0.232 ± 0.038 | 0.457 ± 0.017 |
| FVVGFVCSMVWG | 0.144 ± 0.016 | 0.0975 ± 0.012 | 0.216 ± 0.024 | 0.0889 ± 0.026 | 0.252 ± 0.0045 | 0.0599 ± 0.0055 | 0.0702 ± 0.019 | 0.2266 ± 0.0022 |
| VLGRCWWIVSDL | 0.566 ± 0.19 | 0.736 ± 0.037 | 0.782 ± 0.011 | 0.661 ± 0.016 | 0.763 ± 0.015 | 0.659 ± 0.025 | 0.67 ± 0.024 | 0.755 ± 0.0049 |
| FCFFSMGFVLAL | 0.453 ± 0.072 | 0.3489 ± 0.00089 | 0.365 ± 0.0065 | 0.334 ± 0.0061 | 0.45 ± 0.017 | 0.289 ± 0.0053 | 0.314 ± 0.017 | 0.422 ± 0.026 |
| GMNGLFFIAMLG | 0.362 ± 0.02 | 0.53 ± 0.033 | 0.645 ± 0.041 | 0.514 ± 0.018 | 0.642 ± 0.035 | 0.195 ± 0.016 | 0.195 ± 0.029 | 0.398 ± 0.015 |
| RCQILSYCLLFV | 0.407 ± 0.012 | 0.4186 ± 0.0033 | 0.42 ± 0.017 | 0.34 ± 0.025 | 0.477 ± 0.016 | 0.381 ± 0.025 | 0.33 ± 0.024 | 0.4523 ± 0.0013 |
| LCSYSTIPLRLY | 0.329 ± 0.035 | 0.619 ± 0.034 | 0.726 ± 0.013 | 0.614 ± 0.019 | 0.695 ± 0.022 | 0.188 ± 0.0019 | 0.231 ± 0.021 | 0.48 ± 0.013 |
| LISRLVLVFVIP | 0.38 ± 0.011 | 0.3804 ± 0.00059 | 0.443 ± 0.012 | 0.287 ± 0.032 | 0.529 ± 0.0056 | 0.284 ± 0.021 | 0.272 ± 0.026 | 0.4696 ± 0.0045 |
| PRINTFVVVRVC | 0.159 ± 0.042 | 0.102 ± 0.02 | 0.183 ± 0.015 | 0.216 ± 0.038 | 0.336 ± 0.013 | 0.0626 ± 0.015 | 0.0722 ± 0.018 | 0.0609 ± 0.0015 |
| RLSLCLAVLFLV | 0.205 ± 0.035 | 0.433 ± 0.062 | 0.574 ± 0.035 | 0.564 ± 0.035 | 0.6468 ± 0.0032 | 0.116 ± 0.0062 | 0.126 ± 0.0059 | 0.146 ± 0.009 |
| CFRRPLLRVVLT | 0.506 ± 0.018 | 0.502 ± 0.014 | 0.5681 ± 0.0051 | 0.451 ± 0.037 | 0.59 ± 0.025 | 0.4289 ± 0.0035 | 0.435 ± 0.017 | 0.569 ± 0.0089 |
| IYPPVSVTNLLV | 0.357 ± 0.1 | 0.6646 ± 0.0022 | 0.723 ± 0.0079 | 0.646 ± 0.036 | 0.723 ± 0.014 | 0.227 ± 0.029 | 0.255 ± 0.032 | 0.461 ± 0.0062 |
| LSIGCRCLWGWF | 0.465 ± 0.051 | 0.718 ± 0.029 | 0.7548 ± 0.004 | 0.631 ± 0.013 | 0.762 ± 0.022 | 0.577 ± 0.009 | 0.5967 ± 0.0059 | 0.708 ± 0.026 |
